Data published in patent publication US20260043041A1, “HSL PROTEIN, GENE, VECTOR, CELL, COMPOSITION AND USE THEREOF, AND METHOD FOR IMPROVING HERBICIDE RESISTANCE OF CROPS” (CENTRAL CHINA NORMAL UNIVERSITY, priority 2022, published 2026).
Changes are numbered by the printed parent chain. Names may count otherwise.

T1: rice OsHSL1 (SEQ ID NO: 1) mutant OsHSL1_L204F/F298L/I335A (Oryza sativa, UniProt A0A7G1K9G4, F298L/I335A/L204F)
T1 construct: isolated enzyme, HPLC assay; I335A may be a misprint of I335F
T1 sequence (A0A7G1K9G4 1-350 L204F/F298L/I335A): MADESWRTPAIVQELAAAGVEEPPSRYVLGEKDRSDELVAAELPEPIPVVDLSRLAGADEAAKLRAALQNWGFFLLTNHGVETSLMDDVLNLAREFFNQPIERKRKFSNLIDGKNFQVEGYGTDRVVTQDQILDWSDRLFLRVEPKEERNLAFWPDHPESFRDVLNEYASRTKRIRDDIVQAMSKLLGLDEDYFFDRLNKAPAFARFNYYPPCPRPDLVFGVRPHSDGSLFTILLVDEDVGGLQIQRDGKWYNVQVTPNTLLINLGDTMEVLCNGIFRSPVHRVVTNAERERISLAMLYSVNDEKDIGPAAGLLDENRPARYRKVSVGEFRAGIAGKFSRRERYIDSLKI

B1: rice OsHIS1 wild type, SEQ ID NO: 2 (Oryza sativa Japonica Group) (protein)
chain: MADESWRAPAIVQELAAAGVEEPPSRYLLREKDRSDVKLVAAELPEPLPVVDLSRLDGAEEATKLRVALQNWGFFLLTNHGVEASLMDSVMNLSREFFNQPIERKQKFSNLIDGKNFQIQGYGTDRVVTQDQILDWSDRLHLRVEPKEEQDLAFWPDHPESFRDVLNKYASGTKRIRDDIIQAMAKLLELDEDYFLDRLNEAPAFARFNYYPPCPRPDLVFGIRPHSDGTLLTILLVDKDVSGLQVQRDGKWSNVEATPHTLLINLGDTMEVMCNGIFRSPVHRVVTNAEKERISLAMLYSVNDEKDIEPAAGLLDENRPARYRKVSVEEFRAGIFGKFSRGERYIDSLRI
notes: isolated enzyme, HPLC substrate-consumption assay with Fe(II), ascorbate and 2-oxoglutarate
B2: rice OsHSL1 wild type, SEQ ID NO: 1 (Oryza sativa Japonica Group) (protein)
chain: T1 sequence (A0A7G1K9G4 1-350 L204F/F298L/I335A) with F204L, L298F, A335I
notes: as for B1
B3: OsHSL1_F140H/L204F/I335F: SEQ ID NO.1 with F140 to histidine, L204 to phenylalanine, I335 to phenylalanine (protein)
chain: T1 sequence (A0A7G1K9G4 1-350 L204F/F298L/I335A) with F140H, L298F, A335F
B4: OsHSL1_F140H/L204F/F298L/I335W: SEQ ID NO.1 with F140 to histidine, L204 to phenylalanine, F298 to leucine, I335 to tryptophan (protein)
chain: T1 sequence (A0A7G1K9G4 1-350 L204F/F298L/I335A) with F140H, A335W
B5: OsHSL1_L204F/F298L/I335F: SEQ ID NO.1 with L204 to phenylalanine, F298 to leucine, I335 to phenylalanine (protein, listed as Oryza sativa)
chain: T1 sequence (A0A7G1K9G4 1-350 L204F/F298L/I335A) with A335F
B6: OsHSL1_I335F: SEQ ID NO.1 with the isoleucine at site 335 mutated to phenylalanine (protein, listed as Oryza sativa)
chain: T1 sequence (A0A7G1K9G4 1-350 L204F/F298L/I335A) with F204L, L298F, A335F
B7: OsHSL1_L204F/F298L/I335A: three-point mutant OsHSL1_L204F/F298L/I335A containing I335; not listed in Table 2 (protein)
chain: T1 sequence (A0A7G1K9G4 1-350 L204F/F298L/I335A)

How the values were obtained:
[1] = molecular target: T2, rice OsHSL1 (SEQ ID NO: 1) mutant OsHSL1_F140H/L204F/F298L/I335A (Oryza sativa, UniProt A0A7G1K9G4, F140H/F298L/I335A/L204F); test: Enzyme kinetic parameters with HPPD inhibitors as substrate (HPLC); format: biochemical; settings: compared with OsHSL1 wild type; close to the OsHIS1 wild type
T2 construct: isolated enzyme, HPLC assay
T2 sequence (A0A7G1K9G4 entry or part of it F140H/L204F/F298L/I335A): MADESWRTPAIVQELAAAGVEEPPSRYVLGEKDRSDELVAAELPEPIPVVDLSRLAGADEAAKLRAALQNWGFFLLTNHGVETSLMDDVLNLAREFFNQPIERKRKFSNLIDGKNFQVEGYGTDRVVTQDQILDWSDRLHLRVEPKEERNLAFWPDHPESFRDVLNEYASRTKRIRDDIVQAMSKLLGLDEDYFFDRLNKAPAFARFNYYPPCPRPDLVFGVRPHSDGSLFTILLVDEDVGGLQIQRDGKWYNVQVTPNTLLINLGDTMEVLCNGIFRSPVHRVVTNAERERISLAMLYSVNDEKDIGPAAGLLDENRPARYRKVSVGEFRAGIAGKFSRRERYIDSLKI
From the text: (§1) High Performance Liquid Chromatography (HPLC) was used to test OsHIS1 wild-type protein (the amino acid sequence of OsHIS1 wild-type is shown as SEQ ID NO 2, and the corresponding nucleotide sequence is shown as SEQ ID NO 21), the enzyme kinetic parameters of OsHSL1 wild-type protein and some OsHSL1 mutant proteins with higher reactivity and HPPD inhibitors, and the specific results are shown in Table 9-Table 12. […] Each sample was replicated three times. • e.

[2] = system: CS(=O)(=O)c1ccc(C(=O)C2C(=O)CCCC2=O)c([N+](=O)[O-])c1; test: as above; format: biochemical, rice; settings: other: pH 7.0, 30° C., about 20 min
From the text: as §1

[3] = system: Cc1ccccc1-n1c(=O)c2c(C)c(C(=O)C3=C(O)CCCC3=O)ccc2n(C)c1=O; test: as above; format: biochemical, rice; settings: other: pH 7.0, 30° C., about 20 min
From the text: as §1

[4] = molecular target: T1, rice OsHSL1 (SEQ ID NO: 1) mutant OsHSL1_L204F/F298L/I335A; test: as above; format: biochemical
From the text: as §1

[5] = system: Cc1c(C(=O)c2cnn(C)c2O)ccc(S(C)(=O)=O)c1C1=NOCC1; test: as above; format: biochemical, rice; settings: other: pH 7.0, 30° C., about 20 min
From the text: as §1

[6] = substrate: Cc1ccccc1-n1c(=O)c2c(C)c(C(=O)C3=C(O)CCCC3=O)ccc2n(C)c1=O; test: as above; format: biochemical, rice; settings: other: pH 7.0, 30° C., about 20 min; remark: listed apart in the source
From the text: as §1

[7] = substrate: CS(=O)(=O)c1ccc(C(=O)C2C(=O)CCCC2=O)c([N+](=O)[O-])c1; test: as above; format: biochemical, rice; settings: other: pH 7.0, 30° C., about 20 min; remark: listed apart in the source
From the text: as §1

[8] = format: biochemical; settings: for Catalytic efficiency (%) topramezone: substrate topramezone 50 μM, 30° C., 10 h, protein 0.5 mg/mL; for Catalytic efficiency (%) 30 min / Catalytic efficiency (%) 60 min / Catalytic efficiency (%) 120 min / Catalytic efficiency (%) 300 min / Catalytic efficiency (%) 600 min: topramezone degradation; for Catalytic efficiency (%) 30 min: reaction time 30 min; for Catalytic efficiency (%) 60 min: reaction time 60 min; for Catalytic efficiency (%) 120 min: reaction time 120 min; for Catalytic efficiency (%) 300 min: reaction time 300 min; for Catalytic efficiency (%) 600 min: reaction time 600 min
Protocol: (§2) Each sample was replicated three times. • e.
(§3) Control: refers to the addition of inhibitors to the reaction system, but not the addition of enzymes, which is regarded as the substrate surplus when the inhibitor is not catalyzed.
(§4) Sample: in the enzyme reaction system, the same volume and the same concentration (50 μM) of the inhibitor was added, and the catalytic efficiency of the enzyme to the inhibitor was observed.
(§5) Catalytic efficiency=(1−(peak area of substrate in sample)/(peak area of substrate in control))×100%.

[9] = Catalytic activity of HSL proteins on HPPD inhibitors (HPLC, substrate consumption); format: biochemical; settings: 30° C., 10 h, protein 0.5 mg/mL; for Catalytic efficiency (%) Compound A: substrate Compound A 50 μM; for Catalytic efficiency (%) benzobicyclon technical: substrate benzobicyclon technical 50 μM; for Catalytic efficiency (%) Mesotrione: substrate mesotrione 50 μM; for Catalytic efficiency (%) methyl-benquitrione: substrate methyl-benquitrione 50 μM; for Catalytic efficiency (%) pyraquinate technical: substrate pyraquinate technical 50 μM; for Catalytic efficiency (%) tefuryltrione: substrate tefuryltrione 50 μM; for Catalytic efficiency (%) tembotrione: substrate tembotrione 50 μM
Protocol: as §2, §3, §4, §5

[10] = Enzyme kinetic parameter study (HPLC, Michaelis-Menten fit); format: biochemical
From the text: as §1

| Molecule | Catalytic efficiency (%) topramezone [8] [%] | Catalytic efficiency (%) Compound A [9] [%] | Catalytic efficiency (%) benzobicyclon technical [9] [%] | Catalytic efficiency (%) Mesotrione [9] [%] | Catalytic efficiency (%) methyl-benquitrione [9] [%] | Catalytic efficiency (%) pyraquinate technical [9] [%] | Catalytic efficiency (%) tefuryltrione [9] [%] | Catalytic efficiency (%) tembotrione [9] [%] | further results |
| --- | --- | --- | --- | --- | --- | --- | --- | --- | --- |
| CS(=O)(=O)c1ccc(C(=O)C2C(=O)CCCC2=O)c([N+](=O)[O-])c1 [mesotrione] | – | – | – | – | – | – | – | – | affinity and catalytic efficiency (in words) [1]: better affinity and catalytic efficiency |
| rice OsHSL1 (SEQ ID NO: 1) mutant OsHSL1_F140H/L204F/F298L/I335A (Oryza sativa Japonica Group; F140H/F298L/I335A/L204F) | – | – | – | – | – | – | – | – | Km [2]: 23.4659 µM; kcat [2]: 0.0083 s⁻¹; Km [3]: 22.6001 µM; kcat [3]: 0.0106 s⁻¹ |
| CS(=O)(=O)c1ccc(C(=O)C2=C(Sc3ccccc3)C3CCC(C3)C2=O)c(Cl)c1 (stereo not drawn) [benzobicyclon technical, benzobicyclon] | – | – | – | – | – | – | – | – | affinity and catalytic efficiency (in words) [1]: better affinity and catalytic efficiency |
| Cc1nn(C)c(O)c1C(=O)c1ccc2c(c1C)c(=O)n(-c1cccc(Cl)c1)c(=O)n2C [pyraquinate technical, pyraquinate] | – | – | – | – | – | – | – | – | affinity and catalytic efficiency (in words) ([4]; compared with OsHIS1 wild type and OsHSL1 wild type): superior; Kcat ([4]; pH 7.0, 30° C., about 20 min): 0.00135 s⁻¹ |
| rice OsHSL1 (SEQ ID NO: 1) mutant OsHSL1_I335F (Oryza sativa Japonica Group; I335F) | – | – | – | – | – | – | – | – | Km [5]: 48.4211 µM; kcat [5]: 0.0057 s⁻¹ |
| rice OsHSL1 wild type, SEQ ID NO: 1 (Oryza sativa Japonica Group) | – | – | – | – | – | – | – | – | Km [5]: 44.0732 µM; kcat [5]: 0.0011 s⁻¹ |
| B1 | – | – | – | – | – | – | – | – | Km [6]: 16.2456 µM; kcat [6]: 0.0106 s⁻¹; Km [7]: 5.5811 µM; kcat [7]: 0.05957 s⁻¹ |
| B2 | 100 | 0 | 46 | 40 | 0 | 17 | 100 | 89 | Km [7]: 27.6770 µM; kcat [7]: 0.0002 s⁻¹; Catalytic efficiency (%) 30 min [8]: 79%; Catalytic efficiency (%) 60 min [8]: 86%; Catalytic efficiency (%) 120 min [8]: 93%; Catalytic efficiency (%) 300 min [8]: 98%; Catalytic efficiency (%) 600 min [8]: 100% |
| B3 | 40 | 35 | 100 | 89 | 23 | 2 | 100 | 36 | – |
| B4 | 0 | 98 | 100 | 88 | 90 | 17 | 70 | 55 | – |
| B5 | 1 | 47 | 100 | 56 | 35 | 52 | 94 | 0 | – |
| B6 | 100 | 0 | 44 | 15 | 0 | 24 | 98 | 62 | degradation of topramezone (in words) [8]: can completely degrade topramezone; effect on topramezone degradation versus OsHSL1 wild type (in words) [8]: significantly better effect on topramezone degredation than OsHSL1 wild type; Catalytic efficiency (%) 30 min [8]: 97%; Catalytic efficiency (%) 60 min [8]: 100%; Catalytic efficiency (%) 120 min [8]: 100%; Catalytic efficiency (%) 300 min [8]: 100%; Catalytic efficiency (%) 600 min [8]: 100%; catalytic efficiency to topramezone versus wild type (in words) ([10]; statement on Table 11): obviously superior to that of OsHSL1 wild type |
| B7 | – | – | – | – | – | – | – | – | affinity and catalytic efficiency to pyraquinate technical versus wild types (in words) ([10]; statement on Table 12): superior to that of OsHIS1 wild type and OsHSL1 wild type |
